Results as given in US9688764B2, “Methods of treating breast cancer by administering anti-human prolactin receptor (PRLR) antibodies” (REGENERON PHARMACEUTICALS, INC., priority 2013, dated 2017).

T1: IL-6R on KG-1, HEK293, HEK293/IL-4R and Ramos cells (Homo sapiens, UniProt P08887)
T1 construct: KG-1 (IL-4R^+), HEK293/IL-4R and Ramos (IL-6R^+) cells; endogenous in cells; host or cells: Ramos (IL-6R+), KG-1, HEK293, HEK293/IL-4R
T1 sequence (P08887 20-468): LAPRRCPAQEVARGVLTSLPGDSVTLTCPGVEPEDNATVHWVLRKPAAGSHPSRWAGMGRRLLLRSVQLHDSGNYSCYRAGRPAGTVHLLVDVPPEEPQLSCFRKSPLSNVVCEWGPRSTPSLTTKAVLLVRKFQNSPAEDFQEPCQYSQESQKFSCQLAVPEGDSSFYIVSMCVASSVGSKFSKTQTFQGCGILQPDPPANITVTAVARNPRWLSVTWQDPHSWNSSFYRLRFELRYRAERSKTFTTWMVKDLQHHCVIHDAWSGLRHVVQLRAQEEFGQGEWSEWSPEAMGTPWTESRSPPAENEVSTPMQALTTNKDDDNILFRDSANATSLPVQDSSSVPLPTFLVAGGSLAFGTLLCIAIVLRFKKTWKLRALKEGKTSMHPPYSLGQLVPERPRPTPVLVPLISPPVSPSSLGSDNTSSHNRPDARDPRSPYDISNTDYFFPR


Assays:
[1] = biological target: T1, IL-6R on KG-1, HEK293, HEK293/IL-4R and Ramos cells; assay: FACS relative cell surface expression with anti-IL-6R antibody VV6A9-5; format: binding
Protocol: Cell surface antigen levels on cells that endogenously or recombinantly express IL-4R or IL-6R were first established using FACS. Briefly, approximately 1 million KG-1 (IL-4R^+), HEK293/IL-4R and Ramos (IL-6R^+) cells were incubated with exemplary anti-IL-4R (H4H083P2, see U.S. Pat. No. 7,608,693) and anti-IL-6R (VV6A9-5, see U.S. Pat. No. 7,582,298) antibodies for 30 min on ice. After washing, a PE-conjugated anti-human secondary antibody (10 μg/ml) was added for 30 min followed by a second washing step and subsequent analysis on an Accuri C6 cytometer using FlowJo software (Tree Star, Inc., Ashland, Oreg.). Relative IL-4R and IL-6R cell surface expression levels were calculated as the mean fluorescence intensity (MFI) above isotype control levels.

T47D cells = assay: Cell viability (cell kill) assay; format: cell-based; details: T47D, Table 12, 3 days
Summary of the method: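 T47D cells grown overnight, then exposed 3 days to anti-PRLR ADCs (DM1 via non-cleavable SMCC linker, or other maytansinoid toxins) or free DM1-SMe, 500 nM to 5 pM. Viability by CCK8 OD450, digitonin background subtracted, as % of untreated; IC50 from 10-point four-parameter fit. PRL (15 nM) co-incubation tested separately.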

[2] = Conjugate characterization: protein and linker/payload concentrations, payload loading (UV, MALDI-TOF, SEC-HPLC, RP-HPLC); format: physicochemical; details: Anti-PRLR-SMCC-DM1 conjugates; Table 9
Source text: Selected anti-PRLR antibodies were conjugated to the maytansinoid DM1 through an SMCC linker using methods similar to those set forth in U.S. Pat. No. 5,208,020 and US Patent Application Publication No. 2010/0129314, the disclosures of which are incorporated by reference herein in their entireties. The conjugates were purified by size exclusion chromatography and sterile filtered. All starting materials and solvents were purchased commercially and used without purification, unless otherwise noted.
Protein and linker/payload concentrations were determined by UV spectral analysis and MALDI-TOF mass spectrometry. Size-exclusion HPLC established that all conjugates used were >95% monomeric, and RP-HPLC established that there was <0.5% unconjugated linker payload. Yields are reported in Table 8 and 9 based on protein. All conjugated antibodies were analyzed by UV for linker payload loading values according to Hamblett et al, 2004, Clinical Cancer Research 10(20):7063-7070, and by mass difference, native versus conjugated.

PC3/PRLR tumors = assay: Tumor growth inhibition in xenograft-bearing mice; format: in vivo, SCID mice; details: PC3/PRLR tumors TRIAL #2; multi-dose 5 mg/kg; SCID mice; Day 55
Source text: (§1) Briefly, 20×10^6 MCF7/PRLR cells (ATCC HTB-22 transfected with full length hPRLR as previously described) were implanted subcutaneously into the left mammary fat pad of female NCr nude mice. In other studies, 10×10^6 PC3/PRLR (ATCC CRL-1435 transfected with full length hPRLR as previously described) were implanted subcutaneously into the left flank of male SCID mice. Additionally, 10×10^6 parental T47D (ATCC HTB-133) or […] T47D#11 cells (ATCC HTB-133 serially passaged in vivo as described below) were subcutaneously implanted into the left flank of female CB17 SCID mice. All mice were obtained from Taconic (Hudson, N.Y.). Each bolus of cells was supplemented with a 90-day estrogen release pellet (1.7 mg/pellet; Innovative Research America, Sarasota Fla.). Once tumors had reached an average volume of 250 mm^3, mice were randomized into groups of seven and dosed with anti-PRLR antibody-drug conjugates of the invention or control reagents. Control reagents included PBS vehicle, free methyl-disulfide DM1 (DM1-SMe) and isotype Control 1-DM1.
(§2) In multi-dose studies, mice were dosed once a week for a total of three weeks with tumor volumes and body weights being monitored twice weekly throughout the study. Test ADCs were dosed at 5 and/or 15 mg/kg in the multi-dose studies. In single-dose studies, mice received a single dose of test ADC, and tumor volumes and body weights were monitored twice weekly throughout the study. Test ADCs were dosed at 1, 2.5, 5, and 15 mg/kg in the single-dose studies. Average tumor size as well as tumor growth inhibition relative to the vehicle treated group were calculated for each group. Tumors were measured with calipers twice a week until the average size of the vehicle group reached 1000 mm^3. Tumor size was calculated using the formula (length×width^2)/2. Tumor growth inhibition was calculated according to the following formula: (1−((Tfinal−Tinitial)/(Cfinal−Cinitial)))*100, where T (treated group) and C (control group) represent the mean tumor mass on the day the vehicle group reached 1000 mm^3. […] Results are summarized in Tables 21-25 (multi-dose) and Table 26 (single dose). (NT=not tested in the particular experiment shown).

[3] = tested on: MCF7/hPRLR (MCF7/PRLR) cells; assay: Cell viability (cell kill) assay, nuclear counts; format: cell-based, human; details: Table 12, 3 days
Summary of the method: (§3)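 Anti-PRLR ADCs or free DM1-SMe were added at 500 nM to 5 pM final to cells seeded overnight and were incubated 3 days. MCF7 lines were fixed with 4% formaldehyde plus Hoechst 33342, and nuclei were counted by imaging, with digitonin […] background subtracted. Viability was expressed as % of untreated cells, and IC50 was obtained from a 4-parameter fit of a 10-point curve.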

HEK293 (293) cells = assay: Cell viability (cell kill) assay; format: cell-based; details: 293; Table 11; 3 days
Summary of the method: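 Anti-PRLR–DM1 ADCs (non-cleavable SMCC linker) or free DM1-SMe, 500 nM to 5 pM for 3 days on parental or hPRLR-overexpressing lines. HEK293: CCK8 OD450; MCF7: Hoechst nuclear counts by imaging.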

MCF7 (MCF7/ATCC) cells = assay: Cell viability (cell kill) assay, nuclear counts; format: cell-based; details: MCF7; Table 12; 3 days
Summary of the method: as §3

PC3/hPRLR cells = assay: Cell viability (cell kill) assay; format: cell-based, human; details: PC3/PRLR; Table 11; 3 days
Summary of the method: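 PC3 and PC3/hPRLR (lipofection-generated, FACS-enriched for PRLR) cells exposed 3 days to anti-PRLR ADCs or free DM1-SMe, 500 nM to 5 pM. Viability by CCK8 OD450, digitonin background subtracted, as % of untreated; IC50 from four-parameter fit of 10-point curves.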

MCF7/PRLR tumors = assay: Tumor growth inhibition in xenograft-bearing mice; format: in vivo, NCr nude mice; details: MCF7/PRLR tumors TRIAL #2; multi-dose 5 mg/kg; NCr Nude mice; Day 63
Source text: as §1, §2

PC3 cells = assay: Cell viability (cell kill) assay; format: cell-based; details: Table 11, 3 days
Source text: PRLR-overexpressing cells, including HEK293, PC3, MCF7 and NCI-N87, were generated to assess the ability of anti-PRLR conjugated antibodies to reduce cell viability. For comparative purposes, PC3 and T47D cells with overexpressed ErbB2 were also generated, as well as an MCF7 cell line over-expressing both hPRLR and hErbB2. Briefly, Lipofectamine® 2000-mediated transfection methodology was utilized to generate HEK293 cells expressing human PRLR (HEK293/hPRLR) or human ErbB2 (HEK293/hErbB2). Lipofectamine LTX with Plus Reagent was used to generate PC3 cells expressing human PRLR (PC3/hPRLR) or human ErbB2 (PC3/hErbB2). Lentiviral-mediated transduction was utilized to generate MCF7 cells expressing human PRLR (MCF7/hPRLR), NCI-N87 cells expressing human PRLR (NCI-N87/hPRLR), T47D cells over-expressing human ErbB2 (T47D/hErbB2), and MCF7 cells expressing both human PRLR and human ErbB2 (MCF7/hPRLR/hErbB2). All lines were selected for at least two weeks in complete growth media plus appropriate selection reagents. Stably expressing populations were enriched for PRLR expression via FACS using the anti PRLR antibody Control I.
Next, the ability of anti-PRLR-DM1 antibody-drug conjugates (i.e., anti-PRLR antibodies conjugated to DM1 via a non-cleavable linker [SMCC]) to reduce cell viability was determined using in vitro cell based assays. Cells were seeded in PDL-coated 96 well plates at 1500 to 10000 cells per well in complete growth media and allowed to grow overnight. For cell viability curves, ADCs or free DM1 (as the methyl disulfide derivative DM1-SMe) were added to the cells at final concentrations ranging from 500 nM to 5 pM and incubated for 3 days. The 293, PC3 and T47D cells were incubated with CCK8 (Dojindo, Rockville, Md.) for the final 1-3 hours and the absorbance at 450 nm (OD450) was determined on a Flexstation3 (Molecular Devices, Sunnyvale, Calif.). MCF7 cells were treated with Hoechst 33342 nuclear stain while being fixed with 4% formaldehyde. Images were acquired on the ImageXpress micro XL (Molecular Devices, Sunnyvale, Calif.) and nuclear counts were determined via Columbus image analysis software (Perkin Elmer, Shelton, Conn.). Background OD450 values (PC3, 293, and T47D) or nuclear counts (MCF7) from digitonin (40 nM) treated cells was subtracted from all wells and viability was expressed as a percentage of the untreated controls. IC50 values were determined from a four-parameter logistic equation over a 10-point response curve (GraphPad Prism).
Finally, the potency of anti-PRLR antibodies conjugated to DM1 via the non-cleavable linker SMCC was compared to the cell killing potency of anti-PRLR antibodies conjugated to MMAE via the cleavable linker: mc-vc-PAB (available from Concortis, San Diego, Calif.). Cells used in this experiment were PC3, PC3/hPRLR, MCF7/ATCC and MCF7/PRLR.

T47D#11 tumors = assay: Tumor growth inhibition in xenograft-bearing mice; format: in vivo, CB17 SCID mice
Source text: as §1, §2

Row | Molecule | IL-6R Cell Line Expression Level; Fold Over Background ([1]; HEK293) | IL-6R Cell Line Expression Level; Fold Over Background ([1]; HEK293/IL4R) | IL-6R Cell Line Expression Level; Fold Over Background ([1]; KG-1) | IL-6R Cell Line Expression Level; Fold Over Background ([1]; Ramos) | % Kill (T47D cells) [%] | IC50 (T47D cells; read-out: IC50) [nM] | Payload:Antibody Molar Ratio (MS) [2] | Average Tumor Growth Inhibition (%) (PC3/PRLR tumors) | % Kill [3] [%] | IC50 [3] [nM] | % Kill (HEK293 (293) cells) [%] | IC50 (HEK293 (293) cells) [nM] | % Kill (MCF7 (MCF7/ATCC) cells) [%] | IC50 (MCF7 (MCF7/ATCC) cells) [nM] | % Kill (PC3/hPRLR cells) [%] | IC50 (PC3/hPRLR cells) [nM] | Final Tumor size mm^3 (mean ± SEM) (MCF7/PRLR tumors) [mm^3] | % Kill (PC3 cells) [%] | Average Tumor Growth Inhibition (%) (T47D#11 tumors; T47D#11 tumors, multi-dose 5 mg/kg, SCID mice, Day 66) | effect on T47D#11 tumor growth (T47D#11 tumors; multi-dose, 5 and 15 mg/kg)
1 | VV6A9-5: exemplary anti-IL-6R antibody, see U.S. Pat. No. 7,582,298 (antibody, V domains shown) VH: EVQLVESGGGLVQPGRSLRLSCAASGFTFDDYALHWVRQAPGKGLEWVSGVSWNGGRIGYADSVKGRFTISRDNAKNSLFLQMNSLRVEDTALYYCAKGRDAFDIWGQGTLVTVSS VL: DIQMTQSPSSVSASVGDRVTITCRASQGISSWLAWYQQKPGKAPKLLIYAASSLQSGVPSRFSGSGSGTDFTLTISSLQPEDFATYYCQHAYSFPYTFGQGTKLEIK | 1 | 1 | 7 | 1 |  |  |  |  |  |  |  |  |  |  |  |  |  |  |  | 
2 | H1H6765P-DM1: anti-PRLR antibody H1H6765P conjugated to DM1 through an SMCC linker (conjugate) VH: EVQLVESGGGVVRPGGSLRLSCVGSGFSFDDHGMNWVRQGPGKGLEWVSGFNWNGGSTNYAESVKGRFTISRDNARNSLFLQMNSLRAEDTALYYCVRGRSGWFNDAFDVWGPGTMVTVSS VL: EIVLTQSPGTLSLSPGERATLSCRASQTINSNYLAWYRQKPGQTPRLLIYGTSSRATGIPDRFSGSGSGTDFSLTISRLEPEDFAVFYCQQYAGLPTFGPGTKVDIK |  |  |  |  | 78 | 1.63 | 2.3 | 70 | 84 | 0.18 | 86 | 100 | 68 | 150 | 70 | 0.57 | 90 ± 56 | 70 | 100 | potently inhibited tumor growth
